Reference: patent US20020127221A1
No end group written: not given here.

B1: human urocortin-related peptide (peptide)
peptide: IVLSLDVPIGLLQILLEQARARAAREQATTNARILARVGHC-NH2
B2: Urocortin II (mouse) (peptide)
peptide: VILSLDVPIGLLRILLEQARYKAARNQAATNAQILAHV-NH2
B3: Urocortin (rat) (peptide, UniProt P55090 81-120, looked up)
peptide: DDPPLSIDLTFHLLRTLLELARTQSQRERAEQNRIIFDSV
B4: Sauvagine (frog) (peptide, UniProt P01144 1-40, looked up)
peptide: QGPPISIDLSLELLRKMIEIEKQEKEKQQAANNRLLLDTI
modifications: ends and bridges not checked

Assays:
CRF-R1 [1] = assay: displacement of 125I-Sauvagine, membranes of CHO cells expressing CRFR1, filtration assay
Chain of CRF-R1 (P34998 24-415): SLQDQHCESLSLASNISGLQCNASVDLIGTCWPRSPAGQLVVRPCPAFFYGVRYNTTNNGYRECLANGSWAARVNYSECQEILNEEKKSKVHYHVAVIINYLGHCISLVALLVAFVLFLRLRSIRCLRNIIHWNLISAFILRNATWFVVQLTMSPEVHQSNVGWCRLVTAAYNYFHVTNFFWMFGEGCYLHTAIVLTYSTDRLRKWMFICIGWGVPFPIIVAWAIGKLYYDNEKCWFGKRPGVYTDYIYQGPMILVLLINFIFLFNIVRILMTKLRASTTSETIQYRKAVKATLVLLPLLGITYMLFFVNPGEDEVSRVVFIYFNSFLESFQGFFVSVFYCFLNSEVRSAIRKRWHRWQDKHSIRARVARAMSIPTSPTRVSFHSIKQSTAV

CRF-R2β [2] = assay: displacement of 125I-Sauvagine, membranes of CHO cells expressing CRFR2β, filtration assay
CRF-R1 [3] = assay: assay not named in the summary; presumably 125I-sauvagine competition
CRF-R2β [4] = assay: cell-based or functional assay
CRF-R1 [5] = assay: cell-based or functional assay
CRF-R2β [6] = assay: radioreceptor competition vs 125I-[Tyr0,Glu1,Nle17]-sauvagine, CHO cell membranes
CRF-R1 [7] = assay: radioreceptor competition vs labeled sauvagine, CHO cell membranes; reference urocortin
CRF-R1 [8] = assay: radioreceptor competition vs 125I-[Tyr0,Glu1,Nle17]-sauvagine, CHO cell membranes

Molecule | Ki (CRF-R1 [1]) | Ki (CRF-R2β [2]) | Ki (CRF-R1 [3]) | Avg. EC50 (nM) (cAMP) (CRF-R2β [4]) | Avg. EC50 (nM) (cAMP) (CRF-R1 [5]) | Ki (CRF-R2β [6]) | fold less effective than urocortin at competing for binding of labeled sauvagine (CRF-R1 [7]) | Ki (CRF-R1 [8])
urocortin (Ucn), species not stated (from UniProt P55090 81-120) (peptide) | 0.13 nM | 0.15 nM |  |  |  |  |  | 
B1 | 78 nM | 0.23 nM | 70 nM | 0.42 nM | > 100 nM | 0.5 nM |  | 
B2 |  |  |  | 0.14 nM | > 100 nM | 0.66 nM | > 1000 fold | 
B3 |  |  |  | 0.17 nM | 0.29 nM | 0.62 nM |  | 
B4 |  |  |  |  |  | 1.7 nM |  | 0.94 nM
